Reference: the supplement of paper PMC5998384

Key:
HeLa Kyoto [1] = assay: solubility change mitosis vs G1/S (difference of NP-40 vs SDS log2 ratios) (log2 ratio difference); higher = more soluble in mitosis
HeLa Kyoto [2] = assay: melting temperature (median over replicates), in situ; higher = more thermally stable
HeLa Kyoto [3] = assay: solubility in G1/S (NP-40 vs SDS abundance) (log2 ratio); higher = more soluble; settings: cell cycle stage: G1/S
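Wherever melting temperature (median over replicates), in situ is given: HeLa Kyoto cells synchronized by double thymidine or nocodazole block, proteins quantified by TMT10plex mass spectrometry, three independent biological replicates.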
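Wherever solubility change mitosis vs G1/S (difference of NP-40 vs SDS log2 ratios) is given: synchronized HeLa Kyoto cells (double thymidine block for G1/S, nocodazole release for mitosis), protein amounts in NP-40 versus SDS lysates quantified by mass spectrometry, three biological replicates.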
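Wherever solubility in G1/S (NP-40 vs SDS abundance) is given: HeLa Kyoto cells arrested at G1/S by double thymidine block, proteins quantified by TMT10plex mass spectrometry in mild NP-40 versus SDS extracts, three biological replicates.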

| Sequence | solubility change mitosis (log2) (HeLa Kyoto [1]) | melting temperature (HeLa Kyoto [2]; cell cycle stage: G1/S) | melting temperature (HeLa Kyoto [2]; cell cycle stage: mitosis) | solubility in G1/S (log2) (HeLa Kyoto [3]) |
| --- | --- | --- | --- | --- |
| MACLSPSQLQKFQQDGFLVLEGFLSAEECVAMQQRIGEIVAEMDVPLHCRTEFSTQEEEQLRAQGSTDYFLSSGDKIRFFFEKGVFDEKGNFLVPPEKSINKIGHALHAHDPVFKSITHSFKVQTLARSLGLQMPVVVQSMYIFKQPHFGGEVSPHQDASFLYTEPLGRVLGVWIAVEDATLENGCLWFIPGSHTSGVSRRMVRAPVGSAPGTSFLGSEPARDNSLFVPTPVQRGALVLIHGEVVHKSKQNLSDRSRQAYTFHLMEASGTTWSPENWLQPTAELPFPQLYT [PHYHD1] | -0.137 | 50.2 °C | 51.2 °C | 0.198 |
| MAELGLNEHHQNEVINYMRFARSKRGLRLKTVDSCFQDLKESRLVEDTFTIDEVSEVLNGLQAVVHSEVESELINTAYTNVLLLRQLFAQAEKWYLKLQTDISELENRELLEQVAEFEKAEITSSNKKPILDVTKPKLAPLNEGGTAELLNKEILRLQEENEKLKSRLKTIEIQATNALDEKSKLEKALQDLQLDQGNQKDFIKAQDLSNLENTVAALKSEFQKTLNDKTENQKSLEENLATAKHDLLRVQEQLHMAEKELEKKFQQTAAYRNMKEILTKKNDQIKDLRKRLAQYEPED [LZTFL1] | 0.0593 | 53.2 °C | 52.7 °C | 0.713 |
| MAGAGGGGCPAGGNDFQWCFSQVKGAIDEDVAEADIISTVEFNYSGDLLATGDKGGRVVIFQREQENKSRPHSRGEYNVYSTFQSHEPEFDYLKSLEIEEKINKIRWLPQQNAAHFLLSTNDKTIKLWKISERDKRAEGYNLKDEDGRLRDPFRITALRVPILKPMDLMVEASPRRIFANAHTYHINSISVNSDHETYLSADDLRINLWHLEITDRSFNIVDIKPANMEELTEVITAAEFHPHQCNVFVYSSSKGTIRLCDMRSSALCDRHSKFFEEPEDPSSRSFFSEIISSISDVKFSHSGRYMMTRDYLSVKVWDLNMESRPVETHQVHEYLRSKLCSLYENDCIFDKFECCWNGSDSAIMTGSYNNFFRMFDRDTRRDVTLEASRESSKPRASLKPRKVCTGGKRRKDEISVDSLDFNKKILHTAWHPVDNVIAVAATNNLYIFQDKIN [PPP2R2D] | -0.168 | 53.1 °C | – | -0.162 |
| MAGIPGLLFLLFFLLCAVGQVSPYSAPWKPTWPAYRLPVVLPQSTLNLAKPDFGAEAKLEVSSSCGPQCHKGTPLPTYEEAKQYLSYETLYANGSRTETQVGIYILSSSGDGAQHRDSGSSGKSRRKRQIYGYDSRFSIFGKDFLLNYPFSTSVKLSTGCTGTLVAEKHVLTAAHCIHDGKTYVKGTQKLRVGFLKPKFKDGGRGANDSTSAMPEQMKFQWIRVKRTHVPKGWIKGNANDIGMDYDYALLELKKPHKRKFMKIGVSPPAKQLPGGRIHFSGYDNDRPGNLVYRFCDVKDETYDLLYQQCDAQPGASGSGVYVRMWKRQQQKWERKIIGIFSGHQWVDMNGSPQDFNVAVRITPLKYAQICYWIKGNYLDCREG [PRSS23] | 0.203 | 53.2 °C | 53.6 °C | -0.403 |
| MAGPESDAQYQFTGIKKYFNSYTLTGRMNCVLATYGSIALIVLYFKLRSKKTPAVKAT [USMG5] | -0.0955 | 55 °C | 52.6 °C | -1.21 |
| MALAGCPDSFLHHPYYQDKVEQTPRSQQDPAGPGLPAQSDRLANHQEDDVDLEALVNDMNASLESLYSACSMQSDTVPLLQNGQHARSQPRASGPPRSIQPQVSPRQRVQRSQPVHILAVRRLQEEDQQFRTSSLPAIPNPFPELCGPGSPPVLTPGSLPPSQAAAKQDVKVFSEDGTSKVVEILADMTARDLCQLLVYKSHCVDDNSWTLVEHHPHLGLERCLEDHELVVQVESTMASESKFLFRKNYAKYEFFKNPMNFFPEQMVTWCQQSNGSQTQLLQNFLNSSSCPEIQGFLHVKELGKKSWKKLYVCLRRSGLYCSTKGTSKEPRHLQLLADLEDSNIFSLIAGRKQYNAPTDHGLCIKPNKVRNETKELRLLCAEDEQTRTCWMTAFRLLKYGMLLYQNYRIPQQRKALLSPFSTPVRSVSENSLVAMDFSGQTGRVIENPAEAQSAALEEGHAWRKRSTRMNILGSQSPLHPSTLSTVIHRTQHWFHGRISREESHRIIKQQGLVDGLFLLRDSQSNPKAFVLTLCHHQKIKNFQILPCEDDGQTFFSLDDGNTKFSDLIQLVDFYQLNKGVLPCKLKHHCIRVAL [GRB10] | -0.231 | 48.1 °C | 49.1 °C | 0.159 |
| MAPERLRSRALSAFKLRGLLLRGEAIKYLTEALQSISELELEDKLEKIINAVEKQPLSSNMIERSVVEAAVQECSQSVDETIEHVFNIIGAFDIPRFVYNSERKKFLPLLMTNHPAPNLFGTPRDKAEMFRERYTILHQRTHRHELFTPPVIGSHPDESGSKFQLKTIETLLGSTTKIGDAIVLGMITQLKEGKFFLEDPTGTVQLDLSKAQFHSGLYTEACFVLAEGWFEDQVFHVNAFGFPPTEPSSTTRAYYGNINFFGGPSNTSVKTSAKLKQLEEENKDAMFVFLSDVWLDQVEVLEKLRIMFAGYSPAPPTCFILCGNFSSAPYGKNQVQALKDSLKTLADIICEYPDIHQSSRFVFVPGPEDPGFGSILPRPPLAESITNEFRQRVPFSVFTTNPCRIQYCTQEITVFREDLVNKMCRNCVRFPSSNLAIPNHFVKTILSQGHLTPLPLYVCPVYWAYDYALRVYPVPDLLVIADKYDPFTTTNTECLCINPGSFPRSGFSFKVFYPSNKTVEDSKLQGF [POLE2] | -0.129 | 50 °C | 49.6 °C | 0.148 |
